According to patent publication US20250188166A1:

Assays:
[1] = molecular target: Composition C (Trastuzumab/Herceptin conjugated to IL-18 polypeptide SEQ ID NO: 30) (human)
[2] = molecular target: IL-18 polypeptide SEQ ID NO: 31 (C38A, C76A, C127A) (human) (UniProt Q14116)
[3] = molecular target: native IL-18 wild-type (SEQ ID NO: 1) (human) (UniProt Q14116)
[4] = molecular target: Composition D (LZM-009 conjugated to IL-18 polypeptide SEQ ID NO: 31) (human) (UniProt Q14116)
[5] = molecular target: Composition A (LZM-009 conjugated to IL-18 polypeptide SEQ ID NO: 30) (human) (UniProt Q14116)
[6] = molecular target: IL-18 polypeptide C160 (human) (UniProt Q14116); experiment: cell-based or functional assay
[7] = molecular target: IL-18 polypeptide SEQ ID NO: 62 (E6K, C38A, K53A, C127A) (human) (UniProt Q14116); experiment: cell-based or functional assay
[8] = molecular target: IL-18 polypeptide C147 (human) (UniProt Q14116); experiment: cell-based or functional assay
[9] = molecular target: IL-18 polypeptide SEQ ID NO: 39 (E06K, K53A) (human) (UniProt Q14116); experiment: cell-based or functional assay
[10] = molecular target: IL-18 polypeptide C143 (human) (UniProt Q14116); experiment: cell-based or functional assay
[11] = molecular target: IL-18 polypeptide SEQ ID NO: 48 (C38S, C68S, C76S, C127S, K70C) (human) (UniProt Q14116); experiment: cell-based or functional assay
[12] = molecular target: IL-18 polypeptide SEQ ID NO: 59 (E6K, C38A, K53A) (human) (UniProt Q14116); experiment: cell-based or functional assay
[13] = molecular target: IL-18 polypeptide SEQ ID NO: 46 (E06K, K53A, S55A, M51G) (human) (UniProt Q14116); experiment: cell-based or functional assay
[14] = molecular target: IL-18 polypeptide C148 (human) (UniProt Q14116); experiment: cell-based or functional assay
[15] = molecular target: IL-18 polypeptide C162 (human) (UniProt Q14116); experiment: cell-based or functional assay
[16] = molecular target: IL-18 polypeptide C158 (human) (UniProt Q14116); experiment: cell-based or functional assay
[17] = molecular target: IL-18 polypeptide SEQ ID NO: 51 (T63A) (human) (UniProt Q14116); experiment: cell-based or functional assay
[18] = molecular target: IL-18 polypeptide SEQ ID NO: 6 (E6K, V11I, C38A, K53A, T63A, C68A, C76A, C127A, D98C) (human) (UniProt Q14116); experiment: cell-based or functional assay
[19] = molecular target: IL-18 polypeptide SEQ ID NO: 60 (E6K, C38Q, K53A) (human) (UniProt Q14116); experiment: cell-based or functional assay
[20] = molecular target: IL-18 polypeptide SEQ ID NO: 55 (K53A, T63A, C38S, C68S, C76S, C127S, K70C) (human) (UniProt Q14116); experiment: cell-based or functional assay
[21] = molecular target: IL-18 polypeptide C154 (human) (UniProt Q14116); experiment: cell-based or functional assay
[22] = molecular target: IL-18 polypeptide SEQ ID NO: 54 (E06K, K53A, C38S, C68S, C76S, C127S, K70C) (human) (UniProt Q14116); experiment: cell-based or functional assay
[23] = molecular target: IL-18 polypeptide SEQ ID NO: 53 (K53A, T63A) (human) (UniProt Q14116); experiment: cell-based or functional assay
[24] = molecular target: IL-18 polypeptide C145 (human) (UniProt Q14116); experiment: cell-based or functional assay
[25] = molecular target: IL-18 polypeptide SEQ ID NO: 42 (E06K, K53A, S55A, T63A) (human) (UniProt Q14116); experiment: cell-based or functional assay
[26] = molecular target: IL-18 polypeptide SEQ ID NO: 57 (E6K, C38S, K53A) (human) (UniProt Q14116); experiment: cell-based or functional assay
[27] = molecular target: IL-18 polypeptide C165 (human) (UniProt Q14116); experiment: cell-based or functional assay
[28] = molecular target: IL-18 polypeptide C149 (human) (UniProt Q14116); experiment: cell-based or functional assay
[29] = molecular target: IL-18 polypeptide C161 (human) (UniProt Q14116); experiment: cell-based or functional assay
[30] = molecular target: IL-18 polypeptide C157 (human) (UniProt Q14116); experiment: cell-based or functional assay
[31] = molecular target: IL-18 polypeptide SEQ ID NO: 4 (E6K, C38A, K53A, C68A, M86C) (human) (UniProt Q14116); experiment: cell-based or functional assay
[32] = molecular target: IL-18 polypeptide SEQ ID NO: 5 (E6K, V11I, C38A, K53A, T63A, C68A, C76A, C127A, M86C) (human) (UniProt Q14116); experiment: cell-based or functional assay
[33] = molecular target: IL-18 polypeptide C151 (human) (UniProt Q14116); experiment: cell-based or functional assay
[34] = molecular target: IL-18 polypeptide C163 (human) (UniProt Q14116); experiment: cell-based or functional assay
[35] = molecular target: IL-18 polypeptide SEQ ID NO: 50 (E06K, K53A, T63A) (human) (UniProt Q14116); experiment: cell-based or functional assay
[36] = molecular target: native IL-18 wild-type (SEQ ID NO: 1) (human) (UniProt Q14116); experiment: cell-based or functional assay
[37] = molecular target: IL-18 polypeptide SEQ ID NO: 34 (E06K, K53A, S55A) (human) (UniProt Q14116); experiment: cell-based or functional assay
[38] = molecular target: IL-18 polypeptide SEQ ID NO: 52 (E06K, T63A) (human) (UniProt Q14116); experiment: cell-based or functional assay
[39] = molecular target: IL-18 polypeptide C164 (human) (UniProt Q14116); experiment: cell-based or functional assay
[40] = molecular target: IL-18 polypeptide C144 (human) (UniProt Q14116); experiment: cell-based or functional assay
[41] = molecular target: IL-18 polypeptide SEQ ID NO: 37 (S55A) (human) (UniProt Q14116); experiment: cell-based or functional assay
[42] = molecular target: IL-18 polypeptide SEQ ID NO: 9 (E6K, C38A, K53A, C68A, D98C) (human) (UniProt Q14116); experiment: cell-based or functional assay
[43] = molecular target: IL-18 polypeptide C153 (human) (UniProt Q14116); experiment: cell-based or functional assay
[44] = molecular target: IL-18 polypeptide C166 (human) (UniProt Q14116); experiment: cell-based or functional assay
[45] = molecular target: IL-18 polypeptide C159 (human) (UniProt Q14116); experiment: cell-based or functional assay
[46] = molecular target: IL-18 polypeptide C152 (human) (UniProt Q14116); experiment: cell-based or functional assay
[47] = molecular target: IL-18 polypeptide C167 (human) (UniProt Q14116); experiment: cell-based or functional assay
[48] = molecular target: IL-18 polypeptide SEQ ID NO: 36 (K53A) (human) (UniProt Q14116); experiment: cell-based or functional assay
[49] = molecular target: IL-18 polypeptide C168 (human) (UniProt Q14116); experiment: cell-based or functional assay
[50] = molecular target: IL-18 polypeptide C150 (human) (UniProt Q14116); experiment: cell-based or functional assay
[51] = molecular target: IL-18 polypeptide SEQ ID NO: 47 (C38S, C68S, C76S, C127S) (human) (UniProt Q14116); experiment: cell-based or functional assay
[52] = molecular target: IL-18 polypeptide SEQ ID NO: 35 (Y01G, F02A, E06K, M51G, K53A, D54A, S55A, T63A) (human) (UniProt Q14116); experiment: cell-based or functional assay
[53] = molecular target: IL-18 polypeptide SEQ ID NO: 38 (E06K) (human) (UniProt Q14116); experiment: cell-based or functional assay
[54] = molecular target: IL-18 polypeptide C146 (SEQ ID NO: 68) (human) (UniProt Q14116); experiment: cell-based or functional assay
[55] = molecular target: IL-18 polypeptide C155 (human) (UniProt Q14116); experiment: cell-based or functional assay
[56] = molecular target: IL-18 polypeptide SEQ ID NO: 41 (K53A, S55A) (human) (UniProt Q14116); experiment: cell-based or functional assay
[57] = molecular target: IL-18 polypeptide SEQ ID NO: 43 (E06K, K53A, S55A, Y01G) (human) (UniProt Q14116); experiment: cell-based or functional assay
[58] = molecular target: IL-18 polypeptide C156 (human) (UniProt Q14116); experiment: cell-based or functional assay
[59] = molecular target: IL-18 polypeptide SEQ ID NO: 40 (E06K, S55A) (human) (UniProt Q14116); experiment: cell-based or functional assay

IC50 (read off the curve) [1]: 10 nM
IC50 (read off the curve) [2]: 0.3 nM
IC50 (read off the curve) [3]: 1 nM
IC50 (read off the curve) [4]: 0.1 nM
IC50 (read off the curve) [5]: 8 nM
IC50 of IL-18BP on IFNγ secretion by NK92 cells [6]: 3.18 nM
IC50 of IL-18BP on IFNγ secretion by NK92 cells [7]: 284 nM
IC50 of IL-18BP on IFNγ secretion by NK92 cells [8]: 47.6 nM
IC50 of IL-18BP on IFNγ secretion by NK92 cells [9]: > 703 nM
IC50 of IL-18BP on IFNγ secretion by NK92 cells [10]: 1.62 nM
IC50 of IL-18BP on IFNγ secretion by NK92 cells [11]: 0.114 nM
IC50 of IL-18BP on IFNγ secretion by NK92 cells [12]: 654 nM
IC50 of IL-18BP on IFNγ secretion by NK92 cells [13]: 0.189 nM
IC50 of IL-18BP on IFNγ secretion by NK92 cells [14]: 5.05 nM
IC50 of IL-18BP on IFNγ secretion by NK92 cells [15]: 7.29 nM
IC50 of IL-18BP on IFNγ secretion by NK92 cells [16]: 3.98 nM
IC50 of IL-18BP on IFNγ secretion by NK92 cells [17]: 0.239 nM
IC50 of IL-18BP on IFNγ secretion by NK92 cells [18]: 5.85 nM
IC50 of IL-18BP on IFNγ secretion by NK92 cells [19]: 780 nM
IC50 of IL-18BP on IFNγ secretion by NK92 cells [20]: > 1000 nM
IC50 of IL-18BP on IFNγ secretion by NK92 cells [21]: 3.71 nM
IC50 of IL-18BP on IFNγ secretion by NK92 cells [22]: 23.5 nM
IC50 of IL-18BP on IFNγ secretion by NK92 cells [23]: 18.2 nM
IC50 of IL-18BP on IFNγ secretion by NK92 cells [24]: 10.2 nM
IC50 of IL-18BP on IFNγ secretion by NK92 cells [25]: 1060 nM
IC50 of IL-18BP on IFNγ secretion by NK92 cells [26]: 146 nM
IC50 of IL-18BP on IFNγ secretion by NK92 cells [27]: 0.885 nM
IC50 of IL-18BP on IFNγ secretion by NK92 cells [28]: 1.17 nM
IC50 of IL-18BP on IFNγ secretion by NK92 cells [29]: 1.07 nM
IC50 of IL-18BP on IFNγ secretion by NK92 cells [30]: 6.08 nM
IC50 of IL-18BP on IFNγ secretion by NK92 cells [31]: 396 nM
IC50 of IL-18BP on IFNγ secretion by NK92 cells [32]: 62.4 nM
IC50 of IL-18BP on IFNγ secretion by NK92 cells [33]: 3.62 nM
IC50 of IL-18BP on IFNγ secretion by NK92 cells [34]: 0.823 nM
IC50 of IL-18BP on IFNγ secretion by NK92 cells [35]: > 1000 nM
IC50 of IL-18BP on IFNγ secretion by NK92 cells [36]: 1.47 nM
IC50 of IL-18BP on IFNγ secretion by NK92 cells [37]: 229 nM
IC50 of IL-18BP on IFNγ secretion by NK92 cells [38]: 47.1 nM
IC50 of IL-18BP on IFNγ secretion by NK92 cells [39]: 0.456 nM
IC50 of IL-18BP on IFNγ secretion by NK92 cells [40]: 7.52 nM
IC50 of IL-18BP on IFNγ secretion by NK92 cells [41]: 4.46 nM
IC50 of IL-18BP on IFNγ secretion by NK92 cells [42]: 961 nM
IC50 of IL-18BP on IFNγ secretion by NK92 cells [43]: 2.22 nM
IC50 of IL-18BP on IFNγ secretion by NK92 cells [44]: 0.44 nM
IC50 of IL-18BP on IFNγ secretion by NK92 cells [45]: 1.81 nM
IC50 of IL-18BP on IFNγ secretion by NK92 cells [46]: 7.85 nM
IC50 of IL-18BP on IFNγ secretion by NK92 cells [47]: 0.809 nM
IC50 of IL-18BP on IFNγ secretion by NK92 cells [48]: 27.3 nM
IC50 of IL-18BP on IFNγ secretion by NK92 cells [49]: 0.176 nM
IC50 of IL-18BP on IFNγ secretion by NK92 cells [50]: 21.3 nM
IC50 of IL-18BP on IFNγ secretion by NK92 cells [51]: 0.444 nM
IC50 of IL-18BP on IFNγ secretion by NK92 cells [52]: > 55 nM
IC50 of IL-18BP on IFNγ secretion by NK92 cells [53]: 7.79 nM
IC50 of IL-18BP on IFNγ secretion by NK92 cells [54]: 733 nM
IC50 of IL-18BP on IFNγ secretion by NK92 cells [55]: 3.23 nM
IC50 of IL-18BP on IFNγ secretion by NK92 cells [56]: 37.3 nM
IC50 of IL-18BP on IFNγ secretion by NK92 cells [57]: 27.8 nM
IC50 of IL-18BP on IFNγ secretion by NK92 cells [58]: 0.681 nM
IC50 of IL-18BP on IFNγ secretion by NK92 cells [59]: 15 nM
Substance: Fc fused human IL-18 binding protein isoform a (from UniProt O95998 31-194) (Fc fusion)
